Assay results as given in patent US20110318347A1.

Key:
human CXCR4 (human) [1] = assay: competition vs [125I]-CXCL12; potency relative to monovalent 238D4
human CXCR4 (human) [2] = assay: competition with [125I]-CXCL12 on HEK293T-CXCR4 membranes
human CXCR4 (human) [3] = assay: competition vs [125I]-CXCL12; potency relative to monovalent 238D2
human CXCR4 (human) [4] = assay: competition vs [125I]-CXCL12, membranes of HEK293T cells expressing CXCR4
human CXCR4 (human) [5] = assay: cell-based or functional assay
CCR5 = CCR5 (UniProt P51681); assay: cell-based or functional assay
Chain of CCR5 (P51681 whole entry): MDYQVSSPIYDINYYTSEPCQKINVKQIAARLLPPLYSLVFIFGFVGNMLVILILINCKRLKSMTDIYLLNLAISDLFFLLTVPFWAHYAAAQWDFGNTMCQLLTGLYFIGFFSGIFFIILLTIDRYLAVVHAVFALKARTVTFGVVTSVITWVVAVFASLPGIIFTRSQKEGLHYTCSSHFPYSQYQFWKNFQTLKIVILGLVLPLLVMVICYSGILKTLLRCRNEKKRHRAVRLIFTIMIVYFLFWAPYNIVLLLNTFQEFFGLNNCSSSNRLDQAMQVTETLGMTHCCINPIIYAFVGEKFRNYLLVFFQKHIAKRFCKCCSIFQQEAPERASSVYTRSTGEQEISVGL

human CXCR4 (human) [6] = target: human CXCR4 (human)
human CXCR4 (human) [7] = assay: competition vs [125I]-CXCL12, membranes of HEK293T cells expressing CXCR4; displacement at 0.5 µM, maximum not reached
human CXCR4 (human) [8] = assay: competition vs [125I]-238D4 (3 nM), membranes of HEK293T cells expressing CXCR4; Table B-3 competition vs [125I]-238D4, at 0.5 µM: no displacement
human CXCR4 (human) [9] = assay: competition vs [125I]-CXCL12 (40 pM), membranes of HEK293T cells expressing CXCR4; Table B-3 competition vs [125I]-CXCL12, up to 0.5 µM; bound only
human CXCR4 (human) [10] = assay: competition vs [125I]-238D2 (3 nM), membranes of HEK293T cells expressing CXCR4; Table B-3 competition vs [125I]-238D2, up to 0.5 µM; bound only
human CXCR4 (human) [11] = assay: competition vs [125I]-238D2 (3 nM), membranes of HEK293T cells expressing CXCR4; Table B-3 competition vs [125I]-238D2, at 0.5 µM: no displacement
human CXCR4 (human) [12] = assay: periplasmic fraction (1:10), displacement of [125I]-CXCL12, HEK293T-CXCR4 membranes; - = 0-29%, + = 30-69%, ++ = 70-100%; screening of clones (Table B-2): 30-69% displacement of [125I]-CXCL12, HEK293T-CXCR4 membranes
human CXCR4 (human) [13] = assay: competition vs [125I]-238D4 (3 nM), membranes of HEK293T cells expressing CXCR4; Table B-3 competition vs [125I]-238D4, up to 0.5 µM; bound only

B1: 238D2-20GS-238D4 (VHH)
chain: EVQLVESGGGLVQTGGSLRLSCAASGFTFSSYAMSWVRQAPGKGLEWVSGIKSSGDSTRYAGSVKGRFTISRDNAKNMLYLQMYSLKPEDTAVYYCAKSRVSRTGLYTYDNRGQGTQVTVSSGGGGSGGGGSGGGGSGGGGSEVQLMESGGGLVQAGGSLRLSCAASGRTFNNYAMGWFRRAPGKEREFVAAITRSGVRSGVSAIYGDSVKDRFTISRDNAKNTLYLQMNSLKPEDTAVYTCAASAIGSGALRRFEYDYSGQGTQVTVSS
Human CXCR4 (human) [1]
  Rel. potency: 17 fold
Human CXCR4 (human) [2]
  IC50 (read off the curve): 500 pM
Human CXCR4 (human) [3]
  Rel. potency: 27 fold
Human CXCR4 (human) [4]
  Displacem. (%): 103%
  pKi: 9.44
Human CXCR4 (human) [5]
  Anti-HIV-1 activity (in nM), MT-4/NL4.3: 0.25 nM
  Anti-HIV-1 activity (in nM), PBMC/HE: 2.3 nM
  Anti-HIV-1 activity (in nM), PBMC/NL4.3: 0.2 nM
  Anti-HIV-1 activity (in nM), U87.CD4.CXCR4/NL4.3: 0.35 nM
  Chemotaxis, Jurkat/0.3 nM CXCL12, Imax (%): 100%
  Chemotaxis, Jurkat/0.3 nM CXCL12, pKi or pIC50: 10.2
  IC50, HIV-1 NL4.3, MT-4 cells, exp. 1: 0.0069 µg/mL
  IC50, HIV-1 NL4.3, PBMC donor 1: 0.0182 µg/mL
  IC50, HIV-1 NL4.3, PBMC donor 2: 0.0092 µg/mL
  IC50, HIV-1 UG270, PBMC donor 1: 0.0242 µg/mL
  IC50, HIV-1 UG270, PBMC donor 2: 0.0831 µg/mL
  IC90, HIV-1 NL4.3, MT-4 cells, exp. 1: 0.0238 µg/mL
  IC90, HIV-1 NL4.3, PBMC donor 1: 0.0972 µg/mL
  IC90, HIV-1 NL4.3, PBMC donor 2: 0.0731 µg/mL
  IC90, HIV-1 UG270, PBMC donor 1: 0.139 µg/mL
  IC90, HIV-1 UG270, PBMC donor 2: 0.168 µg/mL
  nM IC50, HIV-1 NL4.3, PBMC donor 1: 0.61 nM
  nM IC50, HIV-1 NL4.3, PBMC donor 2: 0.31 nM
  nM IC50, HIV-1 UG270, PBMC donor 1: 0.81 nM
  nM IC50, HIV-1 UG270, PBMC donor 2: 2.77 nM
CCR5
  Anti-HIV-1 activity (in nM), PBMC/BaL: > 100 nM
  Anti-HIV-1 activity (in nM), U87.CD4.CCR5/BaL: > 100 nM
  IC50, HIV-1 BaL, PBMC donor 1: > 1 µg/mL
  IC50, HIV-1 BaL, PBMC donor 2: > 1 µg/mL
  IC90, HIV-1 BaL, PBMC donor 1: > 1 µg/mL
  IC90, HIV-1 BaL, PBMC donor 2: > 1 µg/mL
  nM IC50, HIV-1 BAL, PBMC donor 1: > 67 nM
  nM IC50, HIV-1 BAL, PBMC donor 2: > 67 nM
Human CXCR4 (human) [6]
  IC50 (read off the curve), migration of Jurkat cells towards 0.3 nM CXCL12: 200 pM

B2: 238D2-20GS-238C5 (VHH)
chain: EVQLVESGGGLVQTGGSLRLSCAASGFTFSSYAMSWVRQAPGKGLEWVSGIKSSGDSTRYAGSVKGRFTISRDNAKNMLYLQMYSLKPEDTAVYYCAKSRVSRTGLYTYDNRGQGTQVTVSSGGGGSGGGGSGGGGSGGGGSEVQLMESGGGLVQAGGSLRLACAASGFTFEDYAIGWFRKAPGKEREGVSCISGSDGSTTYADSVKGRFTISTDNAKNTVYLEMNSLKPEDTAVYYCAQQYGVGGRVVCPGPYEYDVWGQGTQVTVSS
Human CXCR4 (human) [3]
  Rel. potency: 0.18 fold
Human CXCR4 (human) [4]
  Displacem. (%): 110%
  pKi: 7.35

B3: 238D4-20GS-238D4 (VHH)
chain: EVQLMESGGGLVQAGGSLRLSCAASGRTFNNYAMGWFRRAPGKEREFVAAITRSGVRSGVSAIYGDSVKDRFTISRDNAKNTLYLQMNSLKPEDTAVYTCAASAIGSGALRRFEYDYSGQGTQVTVSSGGGGSGGGGSGGGGSGGGGSEVQLMESGGGLVQAGGSLRLSCAASGRTFNNYAMGWFRRAPGKEREFVAAITRSGVRSGVSAIYGDSVKDRFTISRDNAKNTLYLQMNSLKPEDTAVYTCAASAIGSGALRRFEYDYSGQGTQVTVSS
Human CXCR4 (human) [1]
  Rel. potency: 4.4 fold
Human CXCR4 (human) [2]
  IC50 (read off the curve): 2000 pM
Human CXCR4 (human) [4]
  Displacem. (%): 96%
  pKi: 8.85

B4: 238D2-20GS-238B10 (VHH)
chain: EVQLVESGGGLVQTGGSLRLSCAASGFTFSSYAMSWVRQAPGKGLEWVSGIKSSGDSTRYAGSVKGRFTISRDNAKNMLYLQMYSLKPEDTAVYYCAKSRVSRTGLYTYDNRGQGTQVTVSSGGGGSGGGGSGGGGSGGGGSEVQLVESGGGFVQAGGSLRLSCETSGRPLLGYTIAWFRQVPGKEREFVAYHRWSDGANLYADSVKGRFTISGHNAKNTVSLQMNSLKPEDTAVYYCAAARMTTSNDKEYLYWGQGTQVTVSS
Human CXCR4 (human) [3]
  Rel. potency: < 0.1 fold
Human CXCR4 (human) [7]
  Displacem. (%): 43%
Human CXCR4 (human) [4]
  pKi: < 7

B5: Nanobody 237G7 (VHH, from a related filing, part only)
VHH: EVQLVESGGGLVQPGGSLRLSCAASSFIGNYHAIVWLRQAPGKELEGVSCITSRDSITYYASFVKGRFTISRDDAKNTVYLQMNNLKPEDTAVYYCAVBTSMTCPTLIVRFNYRGQGTQVTVSS
Human CXCR4 (human) [8]
  Displacem. (%): 0%
Human CXCR4 (human) [9]
  pKi: < 6.3
Human CXCR4 (human) [10]
  pKi: < 6.3
Human CXCR4 (human) [11]
  Displacem. (%): 0%
Human CXCR4 (human) [12]
  percent inhibition of specific [125I]-CXCL12 binding: 30 to 69%
Human CXCR4 (human) [13]
  pKi: < 6.3

B6: Nanobody 237A6 (VHH)
VHH: EVQLVESGGGLVQAGGSLRLSCAASGSIFSLNAMGWYRQAPGKQRELVAGITSSTSTYYADSVKGRFTISRDNTKNTVYLQMNSLKPEDTAVYYCNVDCPDYYSDYECPLEDRGQGTQVTVSS
Human CXCR4 (human) [8]
  Displacem. (%): 0%
Human CXCR4 (human) [9]
  pKi: < 6.3
Human CXCR4 (human) [10]
  pKi: < 6.3
Human CXCR4 (human) [11]
  Displacem. (%): 0%
Human CXCR4 (human) [12]
  percent inhibition of specific [125I]-CXCL12 binding: 30 to 69%
Human CXCR4 (human) [13]
  pKi: < 6.3

B7: 238D2-15GS-238D4 (VHH)
chain: EVQLVESGGGLVQTGGSLRLSCAASGFTFSSYAMSWVRQAPGKGLEWVSGIKSSGDSTRYAGSVKGRFTISRDNAKNMLYLQMYSLKPEDTAVYYCAKSRVSRTGLYTYDNRGQGTQVTVSSGGGGSGGGGSGGGGSEVQLMESGGGLVQAGGSLRLSCAASGRTFNNYAMGWFRRAPGKEREFVAAITRSGVRSGVSAIYGDSVKDRFTISRDNAKNTLYLQMNSLKPEDTAVYTCAASAIGSGALRRFEYDYSGQGTQVTVSS
Human CXCR4 (human) [1]
  Rel. potency: 17 fold
Human CXCR4 (human) [2]
  IC50 (read off the curve): 500 pM
Human CXCR4 (human) [3]
  Rel. potency: 28 fold
Human CXCR4 (human) [4]
  Displacem. (%): 92%
  pKi: 9.45
Human CXCR4 (human) [5]
  Anti-HIV-1 activity (in nM), MT-4/HE: 0.16 nM
  Anti-HIV-1 activity (in nM), MT-4/NL4.3: 0.25 nM
  Anti-HIV-1 activity (in nM), PBMC/HE: 1.5 nM
  Anti-HIV-1 activity (in nM), PBMC/NL4.3: 0.5 nM
  Anti-HIV-1 activity (in nM), U87.CD4.CXCR4/NL4.3: 0.36 nM
  Chemotaxis, Jurkat/0.3 nM CXCL12, Imax (%): 107%
  Chemotaxis, Jurkat/0.3 nM CXCL12, pKi or pIC50: 9.86
  IC50, HIV-1 NL4.3, MT-4 cells, exp. 1: 0.0166 µg/mL
  IC50, HIV-1 NL4.3, PBMC donor 1: 0.01 µg/mL
  IC50, HIV-1 NL4.3, PBMC donor 2: 0.0179 µg/mL
  IC50, HIV-1 UG270, PBMC donor 1: 0.0212 µg/mL
  IC50, HIV-1 UG270, PBMC donor 2: 0.0894 µg/mL
  IC90, HIV-1 NL4.3, MT-4 cells, exp. 1: 0.0711 µg/mL
  IC90, HIV-1 NL4.3, PBMC donor 1: 0.11 µg/mL
  IC90, HIV-1 NL4.3, PBMC donor 2: 0.0341 µg/mL
  IC90, HIV-1 UG270, PBMC donor 1: 0.0789 µg/mL
  IC90, HIV-1 UG270, PBMC donor 2: 0.17 µg/mL
  nM IC50, HIV-1 NL4.3, PBMC donor 1: 0.33 nM
  nM IC50, HIV-1 NL4.3, PBMC donor 2: 0.6 nM
  nM IC50, HIV-1 UG270, PBMC donor 1: 0.71 nM
  nM IC50, HIV-1 UG270, PBMC donor 2: 2.98 nM
CCR5
  Anti-HIV-1 activity (in nM), PBMC/BaL: > 100 nM
  Anti-HIV-1 activity (in nM), U87.CD4.CCR5/BaL: > 100 nM
  IC50, HIV-1 BaL, PBMC donor 1: > 1 µg/mL
  IC50, HIV-1 BaL, PBMC donor 2: > 1 µg/mL
  IC90, HIV-1 BaL, PBMC donor 1: > 1 µg/mL
  IC90, HIV-1 BaL, PBMC donor 2: > 1 µg/mL
  nM IC50, HIV-1 BAL, PBMC donor 1: > 67 nM
  nM IC50, HIV-1 BAL, PBMC donor 2: > 67 nM
Human CXCR4 (human) [6]
  IC50 (read off the curve), migration of Jurkat cells towards 0.3 nM CXCL12: 300 pM

B8: 238D2-10GS-238D2 (VHH)
chain: EVQLVESGGGLVQTGGSLRLSCAASGFTFSSYAMSWVRQAPGKGLEWVSGIKSSGDSTRYAGSVKGRFTISRDNAKNMLYLQMYSLKPEDTAVYYCAKSRVSRTGLYTYDNRGQGTQVTVSSGGGGSGGGGSEVQLVESGGGLVQTGGSLRLSCAASGFTFSSYAMSWVRQAPGKGLEWVSGIKSSGDSTRYAGSVKGRFTISRDNAKNMLYLQMYSLKPEDTAVYYCAKSRVSRTGLYTYDNRGQGTQVTVSS
Human CXCR4 (human) [3]
  Rel. potency: 14 fold
Human CXCR4 (human) [4]
  Displacem. (%): 95%
  pKi: 9.16

B9: Nanobody 237D1 (VHH)
VHH: EVQLVESGGGLAQPGGPLRLTCEASGVIYSVNDMGWYRQAPGKQRELVAVITSGGGTNYVDSVKGRFTISGDNRKKTVYLQMNSLKPEDTAVYYCSIYYSSGISTLRSWGQGTQVTVSS
Human CXCR4 (human) [8]
  Displacem. (%): 0%
Human CXCR4 (human) [9]
  pKi: < 6.3
Human CXCR4 (human) [10]
  pKi: < 6.3
Human CXCR4 (human) [11]
  Displacem. (%): 0%
Human CXCR4 (human) [12]
  percent inhibition of specific [125I]-CXCL12 binding: 30 to 69%
Human CXCR4 (human) [13]
  pKi: < 6.3
